For assay [1], the target named is RctB145–470 tryptic fragment (Vibrio cholerae). Briefly: AUC; sedimentation velocity, 50,000 rpm, 20°C; 20 mM Tris pH 8.0, 300 mM NaCl, 1 mM TCEP, 1 mM EDTA, 5 mM MgCl2; multiple concentrations (Fig. S4A).
In assay [2] the target is DnaK (added to the in vitro Co-IP reactions) (UniProt P0A6Y8). Briefly: Co-IP (amylose magnetic beads, Western blot with α-DnaK). The conditions noted are these: 1 µM RctB, 1 µM DnaJ, 2 µM DnaK, 100 µM ATP, buffer A pH 7.4, 4°C. For orientation: In western blotting, separated proteins are transferred to a membrane and probed.
For assay [3], the target named is MBP-RctB F316P (Vibrio cholerae). Kind of assay: AUC.
For assay [4], the target named is MBP-RctB K312P (Vibrio cholerae). Briefly: AUC.
In assay [5] the target is MBP-RctB S313P (Vibrio cholerae). Briefly: AUC.
For assay [6], the target named is MBP-tagged RctB (wild type) (Vibrio cholerae (N16961 DNA as template)). Briefly: AUC.
Assay [7] concerns the target MBP-RctB F311P (Vibrio cholerae). Kind of assay: AUC.

Experimental findings from PMC5395669 are described below.

As to “RctB145–470 tryptic fragment (domain or fragment)”, in assay [1], the stoichiometry N turned out to be 2.
On to “MBP-tagged RctB (wild type) Q136A; N137A; E138A; K139A; Q140A; K141A; R142A”, for which, in assay [2], the ratio to parent worked out at 0.8.
In assay [3], MBP-RctB F316P (natural protein) showed a stoichiometry N of 2.
In the case of MBP-RctB K312P (natural protein), the stoichiometry N in assay [4] stood at 2.
For the substance “MBP-tagged RctB (wild type) H157A; E158A; H159A; G160A; L161A; N162A; T163A”, the ratio to parent in assay [2] was determined as 0.3.
In turn, MBP-RctB S313P (natural protein) came in with a stoichiometry N in assay [5] of 2.
As for “MBP-tagged RctB (wild type) P164A; P165A; M167A; K168A; D169A; E170A”, in assay [2], the ratio to parent turned out to be 0.6.
With “MBP-tagged RctB (wild type) L129A; V130A; T131A; E132A; S133A; V134A; K135A”, in assay [2], the ratio to parent was determined as 0.9.
As for “MBP-tagged RctB (wild type) Q150A; V151A; N152A; Q153A; R154A; L155A; L156A”, the ratio to parent in assay [2] turned out to be 0.4.
As for “MBP-tagged RctB (wild type) S143A; K144A; L146A; Q148A; T149A”, in assay [2], the ratio to parent was found to be 0.8.
Turning to “MBP-tagged RctB (wild type) (natural protein)”, the stoichiometry N in assay [6] amounted to 2.
On to MBP-RctB F311P (natural protein), for which the stoichiometry N in assay [7] turned out to be 2.

A word on the stoichiometry N: it is the number of molecules, sites or subunits per partner or assembly.
